We go through 1 molecule from US6620914, “Transcription factor islet-brain 1 (IB1)” (Gerard).

In this series the target is T1, IB1 280-714 (Rattus, UniProt Q9R237 SEQ:280-714).
T1 sequence: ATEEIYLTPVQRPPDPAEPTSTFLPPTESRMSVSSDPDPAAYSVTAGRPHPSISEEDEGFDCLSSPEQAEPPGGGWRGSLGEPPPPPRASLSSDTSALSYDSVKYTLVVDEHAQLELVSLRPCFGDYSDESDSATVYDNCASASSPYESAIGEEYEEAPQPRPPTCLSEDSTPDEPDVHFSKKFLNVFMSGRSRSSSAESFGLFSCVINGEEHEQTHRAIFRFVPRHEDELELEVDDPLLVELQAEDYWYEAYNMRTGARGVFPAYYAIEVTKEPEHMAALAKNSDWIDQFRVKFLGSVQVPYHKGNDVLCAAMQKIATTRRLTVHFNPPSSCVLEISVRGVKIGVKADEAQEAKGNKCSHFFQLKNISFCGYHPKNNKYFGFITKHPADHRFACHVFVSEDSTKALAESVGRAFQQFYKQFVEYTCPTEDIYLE
Briefly: SouthWestern. The settings on record: tags: bacterially produced; label: 32P.

B1: GTII (dsDNA)
DNA 1: GTAAAGGGTGTATTGATTGGATTACCATCAATACTCAGCTTCT
DNA 2: AGAAGCTGAGTATTGATGGTAATCCAATCAATACACCCTTTAC
On to B1, for which the binding result was “binds”.
